According to PMC6965034 (2019):

B1: complete sortilin cytoplasmic domain (K779-E831), GST tag removed (domain or fragment)
chain: KKYVCGGRFLVHRYSVLQQHAEANGVDGVDALDTASHTNKSGYHDDSDEDLLE
B2: GST-tagged PAK1 (Y270-H545) (domain or fragment)
chain: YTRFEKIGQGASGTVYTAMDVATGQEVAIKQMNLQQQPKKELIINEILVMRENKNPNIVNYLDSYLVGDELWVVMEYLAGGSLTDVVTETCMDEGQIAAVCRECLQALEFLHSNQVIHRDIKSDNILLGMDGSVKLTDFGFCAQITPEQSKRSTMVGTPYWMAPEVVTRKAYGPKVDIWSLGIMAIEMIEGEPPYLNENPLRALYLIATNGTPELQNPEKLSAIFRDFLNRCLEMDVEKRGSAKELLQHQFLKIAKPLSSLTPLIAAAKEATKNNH

Key:
Assay in all cases: ITC
[1] = molecular target: B2
sortilin-cd peptide A = sortilin-cd peptide A (human)
sortilin-cd peptide B = sortilin-cd peptide B (human)
sortilin-cd peptide C = sortilin-cd peptide C (human)
sortilin-cd peptide C (human), sequence (Q13153 270-545): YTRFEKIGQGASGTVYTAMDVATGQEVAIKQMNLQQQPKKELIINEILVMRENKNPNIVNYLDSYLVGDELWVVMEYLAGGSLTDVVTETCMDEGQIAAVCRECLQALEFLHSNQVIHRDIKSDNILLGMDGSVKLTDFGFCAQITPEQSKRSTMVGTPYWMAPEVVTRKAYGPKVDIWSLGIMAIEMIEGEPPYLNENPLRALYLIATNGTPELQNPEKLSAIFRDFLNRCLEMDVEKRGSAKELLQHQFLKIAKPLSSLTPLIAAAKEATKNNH

sortilin-cd peptide A (human), sequence (Q13153 270-545): as above
sortilin-cd peptide B (human), sequence (Q13153 270-545): as above

Kd [1] | Kd (sortilin-cd peptide A) | Kd (sortilin-cd peptide B) | Kd (sortilin-cd peptide C) | Binder
1.8 µM | – | – | – | B1
– | 14.1 µM | 12.6 µM | 3.6 µM | B2
